Publication PMC8196007

Molecular target: solubilized kinase domain of B-Raf (sB-Raf), unlabeled (human) (UniProt P15056)
Assay: native MS; LILBID-MS of the BS3-crosslinked sample and of non-crosslinked mixtures, sB-Raf:CDC-37:FKB-6:HSP-90 = 1:1:1:1 or as indicated; 25 mM Tris, 20 mM KCl, pH 7.5

B1: nematode CDC-37 (natural protein)
chain: MPIDYSKWKDIEVSDDEDDTHPNIDTPSLFRWRHQARLERMAEKKMEQEKIDKEKGTTSKKMEELEKKLAAADVTDKSDIQKQIDEVKAQEEAWRKKEAELEEKERLEPWNVDTIGHEAFSTSRINKITEKKPQAPKTDEEDTHAMSTFFETHESLLEKMAVLKNGAKSTELFLAEHPHMASEYTANWLTIEALNAAIDFNEEKMKTMAEQCIIIQYLLELSKSLNAVATNTTVQKQFFKKFEAAEPVYMKHYQDEVKAFEDRLRTRAQTKRDAAMEEAEAEEKAERMKSAPGGIDPQEVFEQLPEEMRKCFEAHDIEALKGVAQKMDEEVFKYHFDRCIASGLWVPGKADDDDDDEEAAPAEEEPTTSS
For B1, the stoichiometry N was 1.
